Measured values reported in patent US20220025344A1 (Novartis, published 2022).

Columns and labels:
His6-Human LPL(28-475) = molecular target: T1, His6-Human LPL(28-475) (human, UniProt P06858 28-475); test: Ni-affinity co-purification of untagged GPIHBP1 with N-terminally 6-His tagged LPL (SDS-PAGE), then size exclusion chromatography against MW standards
T1 construct: also called N-terminally 6-His tagged LPL
T1 sequence: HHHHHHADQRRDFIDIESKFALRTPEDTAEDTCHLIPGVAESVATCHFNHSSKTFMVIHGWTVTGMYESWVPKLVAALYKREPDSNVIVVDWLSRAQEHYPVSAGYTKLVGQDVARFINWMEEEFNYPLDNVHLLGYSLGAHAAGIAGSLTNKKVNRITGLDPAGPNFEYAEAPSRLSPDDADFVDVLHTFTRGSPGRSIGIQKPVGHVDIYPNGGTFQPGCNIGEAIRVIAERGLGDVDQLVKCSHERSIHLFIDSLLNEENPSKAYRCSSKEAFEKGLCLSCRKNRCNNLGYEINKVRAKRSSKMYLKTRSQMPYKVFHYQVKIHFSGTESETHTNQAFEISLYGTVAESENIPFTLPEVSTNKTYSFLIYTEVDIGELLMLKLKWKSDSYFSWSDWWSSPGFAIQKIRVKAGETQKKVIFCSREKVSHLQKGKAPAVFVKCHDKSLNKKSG
Excerpt: Initially an attempt was made to purify LPL protein by itself. In order to aid this purification, a variety of LPL constructs were synthesized that were either untagged or had N- or C-terminal tags. These LPL constructs were expressed in mammalian cells and purified using heparin chromatography or Ni-affinity chromatography. […] Co-expression of the purified soluble form of GPIHBP1 with LPL protected LPL against spontaneous inactivation (data not shown). GPIHBP1 was then co-expressed with LPL in the presence of LMF1 in the following manner: N-terminally 6-His tagged LPL, untagged GPIHBP1, and LMF1 were co-transfected in a ratio of 3:1:1 into HEK293T cells. The expressed protein complex was captured using Ni-affinity chromatography. […] Importantly, the presence of GPIHBP1 and LMF1 generated an LPL/GPIHBP1 complex that was homogenous and eluted as a ˜75 KDa complex during size exclusion chromatography (FIG. 1, panel C). This agreed well with the predicted molecular weight of a 1:1 LPL/GPHBP1 complex.

[1] = molecular target: T2, Recombinant human LPL (mature human lipoprotein lipase, amino acids 28-475) (human, UniProt P06858 28-475); test: crystal structure of the complex (data not shown)
T2 construct: also called LPL alone; hLPL
T2 sequence: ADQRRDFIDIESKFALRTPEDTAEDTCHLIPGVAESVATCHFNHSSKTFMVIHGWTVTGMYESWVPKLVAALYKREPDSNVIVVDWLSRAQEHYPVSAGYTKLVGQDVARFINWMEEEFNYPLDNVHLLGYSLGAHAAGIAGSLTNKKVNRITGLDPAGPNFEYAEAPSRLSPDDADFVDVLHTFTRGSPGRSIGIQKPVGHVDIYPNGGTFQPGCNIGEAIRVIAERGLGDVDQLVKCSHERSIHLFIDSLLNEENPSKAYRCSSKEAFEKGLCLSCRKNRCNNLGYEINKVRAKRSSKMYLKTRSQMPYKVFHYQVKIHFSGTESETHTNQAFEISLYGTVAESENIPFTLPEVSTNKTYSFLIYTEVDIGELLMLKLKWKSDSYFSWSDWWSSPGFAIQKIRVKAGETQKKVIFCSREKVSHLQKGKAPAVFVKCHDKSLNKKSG

B1: Human soluble GPIHBP1 (aa 21-151) (receptor)
chain: QTQQEEEEEDEDHGPDDYDEEDEDEVEEEETNRLPGGRSRVLLRCYTCKSLPRDERCNLTQNCSHGQTCTTLIAHGNTESGLLTTHSTWCTDSCQPITKTVEGTQVTMTCCQSSLCNVPPWQSSRVQDPTG
notes: also called untagged GPIHBP1; solGPIHBP1
Question: Does B1 bind (His6-Human LPL(28-475))?
Answer: binds

Question: Does B1 bind [1]?
Answer: binds
